In patent US20020157122:
Positions count from the first letter of the chain named.

What was measured:
[1] = target: T1, humanized wild type APP (hAPPwt), P12023
T1 chain: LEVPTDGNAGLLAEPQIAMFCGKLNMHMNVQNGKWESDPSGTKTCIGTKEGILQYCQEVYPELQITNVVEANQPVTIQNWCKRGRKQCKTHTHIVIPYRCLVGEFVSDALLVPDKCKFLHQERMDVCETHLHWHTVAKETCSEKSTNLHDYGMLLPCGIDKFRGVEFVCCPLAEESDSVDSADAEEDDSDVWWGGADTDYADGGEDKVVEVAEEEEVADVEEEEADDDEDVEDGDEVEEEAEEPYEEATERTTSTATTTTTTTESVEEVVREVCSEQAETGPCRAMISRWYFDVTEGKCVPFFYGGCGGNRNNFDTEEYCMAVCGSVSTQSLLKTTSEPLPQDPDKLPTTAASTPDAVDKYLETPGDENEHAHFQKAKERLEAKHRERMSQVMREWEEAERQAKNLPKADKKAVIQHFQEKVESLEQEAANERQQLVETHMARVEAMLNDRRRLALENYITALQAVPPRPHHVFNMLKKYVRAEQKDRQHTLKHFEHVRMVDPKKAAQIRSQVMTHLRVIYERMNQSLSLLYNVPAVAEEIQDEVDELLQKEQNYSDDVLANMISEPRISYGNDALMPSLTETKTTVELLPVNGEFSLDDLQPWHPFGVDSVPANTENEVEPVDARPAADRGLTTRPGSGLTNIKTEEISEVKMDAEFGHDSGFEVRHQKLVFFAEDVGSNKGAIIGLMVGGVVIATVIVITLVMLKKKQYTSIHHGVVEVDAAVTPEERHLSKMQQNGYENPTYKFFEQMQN

[2] = target: humanized APP bearing the Swedish variant (a murine APP in which the Aβ1-42 region corresponds to the human Aβ1-42), P12023
[3] = target: hAPP717 (variant of humanized APP), P12023
[4] = target: T2, mouse APP (endogenous β-amyloid precursor protein), P12023
T2 chain: T1 chain

B1: human BACE1 (full-length, expressed from recombinant adenovirus) (protein)
chain: ETDEEPEEPGRRGSFVEMVDNLRGKSGQGYYVEMTVGSPPQTLNILVDTGSSNFAVGAAPHPFLHRYYQRQLSSTYRDLRKGVYVPYTQGKWEGELGTDLVSIPHGPNVTVRANIAAITESDKFFINGSNWEGILGLAYAEIARPDDSLEPFFDSLVKQTHVPNLFSLQLCGAGFPLNQSEVLASVGGSMIIGGIDHSLYTGSLWYTPIRREWYYEVIIVRVEINGQDLKMDCKEYNYDKSIVDSGTTNLRLPKKVFEAAVKSIKAASSTEKFPDGFWLGEQLVCWQAGTTPWNIFPVISLYLMGEVTNQSFRITILPQQYLRPVEDVATSQDDCYKFAISQSSTGTVMGAVIMEGFYVVFDRARKRIGFAVSACHVHDEFRTAAVEGPFVTLDMEDCGYNIPQTDESTLMTIAYVMAAICALFMLPLCLMVCQWRCLRCLRQQHDDFADDISLLK
- +11 derived β-CTF in neurons (immunoprecipitation with CT15) [1]: when neurons co-expressing human BACE1 and hAPPwt or hAPPswe or hAPP717 there is secreted a peptide corresponding to the +11 derived β-CTF (+11-CTF) in addition to the +1 derived β-CTF
- secretion of human Aβ11-40 (IP-MS of conditioned media with 4G8) [1]: now revealed the secretion of human Aβ11-40 peptide in addition to the murine Aβ11-40 peptide from murine neurons co-expressing human BACE1 and hAPPwt
- +11 derived β-CTF in neurons (immunoprecipitation with CT15) [2]: when neurons co-expressing human BACE1 and hAPPwt or hAPPswe or hAPP717 there is secreted a peptide corresponding to the +11 derived β-CTF (+11-CTF) in addition to the +1 derived β-CTF
- secretion of Aβ peptides into culture medium of BACE1 deficient astrocytes [2]: BACE1 deficient astrocytes co-infected with adenoviruses expressing both APPswe and BACE1 restored the ability to secrete Aβ peptides into culture medium
- secretion of human Aβ11-40 (IP-MS of conditioned media with 4G8) [2]: The human Aβ11-40 peptides are also secreted by primary neurons co expressing human BACE1 and hAPPswe or hAPP717
- +11 derived β-CTF in neurons (immunoprecipitation with CT15) [3]: when neurons co-expressing human BACE1 and hAPPwt or hAPPswe or hAPP717 there is secreted a peptide corresponding to the +11 derived β-CTF (+11-CTF) in addition to the +1 derived β-CTF
- secretion of human Aβ11-40 (IP-MS of conditioned media with 4G8) [3]: The human Aβ11-40 peptides are also secreted by primary neurons co expressing human BACE1 and hAPPswe or hAPP717

B2: mouse BACE1 (endogenous, beta-site APP-cleaving enzyme 1) (protein)
chain: B1 chain with P6S, V162I, L165I, S180T, V182A, I340V, L393A, Q443H
- secretion of Aβ peptides (IP-MS of conditioned media with 4G8) [1]: the human and murine Aβ1-40 and Aβ1-42 were secreted, however, the human Aβ11-40 peptide was not secreted into culture media from murine primary neurons infected with adenovirus expressing hAPPwt
- Aβ1-40 and Aβ1-42 in conditioned media of astrocytes (Aβ ELISA) [2]: Aβ1-40 and Aβ1-42 were easily detected from BACE1+/+ and BACE1+/- astrocyte cultures by Aβ ELISA assay, but were not detectable from BACE1-/- cultures
- Aβ1-40 and Aβ1-42 in conditioned media of neurons (quantitative sandwich ELISA) [2]: showed high levels of Aβ1-40 and Aβ1-42 while undetectable levels of Aβ1-40 and Aβ1-42 were observed from media of BACE1-/- cultures expressing APPswe
- secretion of Aβ peptides from primary cortical neurons (IP-MS of conditioned media with 4G8) [4]: secretion of these Aβ species is abolished from BACE1-/- neurons except for the Aβ 17-40 (p3) fragment

B3: BACE2 (endogenous, in cultured mouse astrocytes and neurons) (protein)
chain: ALEPVRATANFLAMVDNLQGDSGRGYYLEMLIGTPPQKVQILVDTGSSNFAVAGAPHSYIDTYFDSESSSTYHSKGFDVTVKYTQGSWTGFVGEDLVTIPKGFNSSFLVNIATIFESENFFLPGIKWNGILGLAYAALAKPSSSLETFFDSLVAQAKIPDIFSMQMCGAGLPVAGSGTNGGSLVLGGIEPSLYKGDIWYTPIKEEWYYQIEILKLEIGGQNLNLDCREYNADKAIVDSGTTLLRLPQKVFDAVVEAVARTSLIPEFSDGFWTGAQLACWTNSETPWAYFPKISIYLRDENASRSFRITILPQLYIQPMMGAGFNYECYRFGISSSTNALVIGATVMEGFYVVFDRAQRRVGFAVSPCAEIEGTTVSEISGPFSTEDIASNCVPAQALNEPILWIVSYALMSVCGAILLVLILLLLLPLHCRHAPRDPEVVNDESSLVRHRWK
- relative amount of Aβ 1-19 and Aβ 1-20 normalized to Aβ1-40 (ProteinChip array coated with 6E10) [2]: BACE2 mediated cleavages (at +19 and +20 of Aβ) were much higher in cultured astrocytes as compared to neurons
